# Assay results taken from the supplement of paper PMC10065799, “High-throughput profiling of sequence recognition by tyrosine kinases and SH2 domains using bacterial peptide display” (eLife, 2023).
# System: Fer (mouse)
# Test: phosphorylation enrichment, bacterial display (enrichment ratio); higher = better substrate or ligand; peptides without Tyr show the background
# 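Also: 11-residue human phosphosite peptides and single-mutation variants displayed on the E. coli surface, counted by deep sequencing, each peptide's frequency after selection divided by its frequency in the unselected input library; frequency after pTyr selection over input frequency; kinase dosed for 20-30% of maximal phosphorylation in three min.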
row,Sequence,phosphorylation enrichment
1,NETNKYQISVN [FGB_Y368_A365T],0.375
2,KLCHLYQDHMQ [WNT5A_Y86],0.667
3,KLKPIYFHTQG [AR_Y916_V912L],0.312
4,SDYSSYARTSI [TERT_Y949],0.542
5,EKGEEYGGGGG [TUBA1A_Y451_E447K],0.499
6,IQTDGYRAPEA [UHMK1_Y197],0.461
7,PLRPDYQEPSR [DDR2_Y481],0.397
8,LTPVKYLLSAT [GSDMC_Y26],0.282
9,KSAAIYNPVIY [RHO_Y301],15.4
10,GIVEDYRPTFY [ACVRL1_Y421_P424T],0.373
11,TSNQEYLFLSM [FGFR1_Y766_D768Y_YF],0.557
12,SGFESYGSSSY [RPA2_Y9],0.403
13,DNPAKYFILES [DPP10_Y512],0.419
14,NPPGMYPVTGP [LPP_Y346],0.649
15,TEDAEYDVQSK [PTCHD3_Y335_P333A],0.606
16,FDDIAYIQKTL [PIK3CA_Y1021_R1023Q],0.352
17,PSAELYSFALP [PDGFRB_Y716_N718Y_YF],17.4

row,Sequence,phosphorylation enrichment
1,EQQRAYLEGTC [HLA-C_Y183_L180Q],0.455
2,MIRSAYALRGL [CPS1_Y590_G593R],0.409
3,IGMIIYFARKA [VCAM1_Y718],0.417
4,CGQDPCIRELG [UROS_Y19_Y19C],0.458
5,SVTCTYSPALD [TP53_Y126_N131D],0.821
6,RGGDSYGGPPR [RBMX_Y190_R187G],0.441
7,WHHTFYNELRV [ACTA1_Y93],0.54
8,SSREGYVSHHN [FAM83B_Y433],0.326
9,ASTHIYQIMNH [ITK_Y588_V587I],6.35
10,SSQTVYQRVEG [TFR2_Y23],0.517
11,PEADKYCLTYA [FGG_Y300_R301C],0.735
12,QSMEPYTKQQL [STAT3_Y640_V637M],0.546
13,CTTIHYNYTCN [TP53_Y234_M237T],0.476
14,LKVQVYILGRE [ASS1_Y359_G356V],1.59
15,ANNQRYAFMPL [TMEM87B_Y460],0.394
16,SVVVPYEPPEF [TP53_Y220_V225F],0.449

# Molecular target: Fes (UniProt P07332)
# Sequence (P07332 whole entry, looked up): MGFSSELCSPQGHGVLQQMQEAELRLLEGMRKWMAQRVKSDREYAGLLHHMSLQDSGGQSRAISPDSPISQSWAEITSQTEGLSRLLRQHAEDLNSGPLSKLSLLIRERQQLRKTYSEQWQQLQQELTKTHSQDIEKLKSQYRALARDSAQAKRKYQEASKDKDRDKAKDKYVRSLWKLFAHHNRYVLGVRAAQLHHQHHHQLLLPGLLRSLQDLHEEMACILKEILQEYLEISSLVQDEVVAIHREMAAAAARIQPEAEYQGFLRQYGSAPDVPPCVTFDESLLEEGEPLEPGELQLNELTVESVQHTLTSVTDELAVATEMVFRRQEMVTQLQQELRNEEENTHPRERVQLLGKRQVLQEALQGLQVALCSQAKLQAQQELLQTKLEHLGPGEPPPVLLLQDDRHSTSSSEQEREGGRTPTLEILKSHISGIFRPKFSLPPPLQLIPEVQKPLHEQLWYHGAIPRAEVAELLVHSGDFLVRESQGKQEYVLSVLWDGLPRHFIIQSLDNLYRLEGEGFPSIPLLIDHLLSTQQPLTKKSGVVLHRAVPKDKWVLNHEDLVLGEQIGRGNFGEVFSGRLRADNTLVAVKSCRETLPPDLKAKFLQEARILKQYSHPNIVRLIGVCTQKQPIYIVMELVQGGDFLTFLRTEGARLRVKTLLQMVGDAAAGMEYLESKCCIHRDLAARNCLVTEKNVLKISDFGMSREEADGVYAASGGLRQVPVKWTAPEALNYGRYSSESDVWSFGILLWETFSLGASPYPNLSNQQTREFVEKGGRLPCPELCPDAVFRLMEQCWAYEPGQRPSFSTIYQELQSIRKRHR
# Test: as above
row,Sequence,phosphorylation enrichment
1,NETNKYQISVN [FGB_Y368_A365T],0.709
2,KLCHLYQDHMQ [WNT5A_Y86],0.881
3,KLKPIYFHTQG [AR_Y916_V912L],0.671
4,SDYSSYARTSI [TERT_Y949],0.558
5,EKGEEYGGGGG [TUBA1A_Y451_E447K],0.855
6,IQTDGYRAPEA [UHMK1_Y197],0.829
7,PLRPDYQEPSR [DDR2_Y481],1.66
8,LTPVKYLLSAT [GSDMC_Y26],0.616
9,KSAAIYNPVIY [RHO_Y301],0.72
10,GIVEDYRPTFY [ACVRL1_Y421_P424T],0.866
11,TSNQEYLFLSM [FGFR1_Y766_D768Y_YF],1.09
12,SGFESYGSSSY [RPA2_Y9],0.765
13,DNPAKYFILES [DPP10_Y512],1.04
14,NPPGMYPVTGP [LPP_Y346],0.531
15,TEDAEYDVQSK [PTCHD3_Y335_P333A],1.14
16,FDDIAYIQKTL [PIK3CA_Y1021_R1023Q],0.819
17,PSAELYSFALP [PDGFRB_Y716_N718Y_YF],1.28

row,Sequence,phosphorylation enrichment
1,EQQRAYLEGTC [HLA-C_Y183_L180Q],1.03
2,MIRSAYALRGL [CPS1_Y590_G593R],0.628
3,IGMIIYFARKA [VCAM1_Y718],0.957
4,CGQDPCIRELG [UROS_Y19_Y19C],0.946
5,SVTCTYSPALD [TP53_Y126_N131D],1.76
6,RGGDSYGGPPR [RBMX_Y190_R187G],0.848
7,WHHTFYNELRV [ACTA1_Y93],1.01
8,SSREGYVSHHN [FAM83B_Y433],0.502
9,ASTHIYQIMNH [ITK_Y588_V587I],0.754
10,SSQTVYQRVEG [TFR2_Y23],0.708
11,PEADKYCLTYA [FGG_Y300_R301C],1.2
12,QSMEPYTKQQL [STAT3_Y640_V637M],1.02
13,CTTIHYNYTCN [TP53_Y234_M237T],0.837
14,LKVQVYILGRE [ASS1_Y359_G356V],5.15
15,ANNQRYAFMPL [TMEM87B_Y460],0.696
16,SVVVPYEPPEF [TP53_Y220_V225F],1.05

# System: AncSZ
# Test: as above
row,Sequence,phosphorylation enrichment
1,NETNKYQISVN [FGB_Y368_A365T],0.653
2,KLCHLYQDHMQ [WNT5A_Y86],0.654
3,KLKPIYFHTQG [AR_Y916_V912L],0.602
4,SDYSSYARTSI [TERT_Y949],0.792
5,EKGEEYGGGGG [TUBA1A_Y451_E447K],0.847
6,IQTDGYRAPEA [UHMK1_Y197],0.601
7,PLRPDYQEPSR [DDR2_Y481],1.21
8,LTPVKYLLSAT [GSDMC_Y26],0.515
9,KSAAIYNPVIY [RHO_Y301],0.758
10,GIVEDYRPTFY [ACVRL1_Y421_P424T],0.83
11,TSNQEYLFLSM [FGFR1_Y766_D768Y_YF],1.21
12,SGFESYGSSSY [RPA2_Y9],0.582
13,DNPAKYFILES [DPP10_Y512],0.833
14,NPPGMYPVTGP [LPP_Y346],0.649
15,TEDAEYDVQSK [PTCHD3_Y335_P333A],1.38
16,FDDIAYIQKTL [PIK3CA_Y1021_R1023Q],0.832
17,PSAELYSFALP [PDGFRB_Y716_N718Y_YF],2.77

row,Sequence,phosphorylation enrichment
1,EQQRAYLEGTC [HLA-C_Y183_L180Q],0.939
2,MIRSAYALRGL [CPS1_Y590_G593R],0.669
3,IGMIIYFARKA [VCAM1_Y718],0.9
4,CGQDPCIRELG [UROS_Y19_Y19C],0.991
5,SVTCTYSPALD [TP53_Y126_N131D],1.74
6,RGGDSYGGPPR [RBMX_Y190_R187G],0.498
7,WHHTFYNELRV [ACTA1_Y93],0.875
8,SSREGYVSHHN [FAM83B_Y433],0.548
9,ASTHIYQIMNH [ITK_Y588_V587I],0.562
10,SSQTVYQRVEG [TFR2_Y23],0.962
11,PEADKYCLTYA [FGG_Y300_R301C],1.27
12,QSMEPYTKQQL [STAT3_Y640_V637M],0.851
13,CTTIHYNYTCN [TP53_Y234_M237T],0.756
14,LKVQVYILGRE [ASS1_Y359_G356V],3.58
15,ANNQRYAFMPL [TMEM87B_Y460],0.588
16,SVVVPYEPPEF [TP53_Y220_V225F],1.01

# System: c-Src
# Test: as above
row,Sequence,phosphorylation enrichment
1,NETNKYQISVN [FGB_Y368_A365T],0.329
2,KLCHLYQDHMQ [WNT5A_Y86],0.575
3,KLKPIYFHTQG [AR_Y916_V912L],0.523
4,SDYSSYARTSI [TERT_Y949],0.897
5,EKGEEYGGGGG [TUBA1A_Y451_E447K],0.293
6,IQTDGYRAPEA [UHMK1_Y197],0.398
7,PLRPDYQEPSR [DDR2_Y481],0.533
8,LTPVKYLLSAT [GSDMC_Y26],0.345
9,KSAAIYNPVIY [RHO_Y301],6.12
10,GIVEDYRPTFY [ACVRL1_Y421_P424T],0.347
11,TSNQEYLFLSM [FGFR1_Y766_D768Y_YF],0.488
12,SGFESYGSSSY [RPA2_Y9],0.481
13,DNPAKYFILES [DPP10_Y512],0.442
14,NPPGMYPVTGP [LPP_Y346],0.389
15,TEDAEYDVQSK [PTCHD3_Y335_P333A],0.535
16,FDDIAYIQKTL [PIK3CA_Y1021_R1023Q],0.485
17,PSAELYSFALP [PDGFRB_Y716_N718Y_YF],7.32

row,Sequence,phosphorylation enrichment
1,EQQRAYLEGTC [HLA-C_Y183_L180Q],0.531
2,MIRSAYALRGL [CPS1_Y590_G593R],0.474
3,IGMIIYFARKA [VCAM1_Y718],0.449
4,CGQDPCIRELG [UROS_Y19_Y19C],0.421
5,SVTCTYSPALD [TP53_Y126_N131D],0.745
6,RGGDSYGGPPR [RBMX_Y190_R187G],0.592
7,WHHTFYNELRV [ACTA1_Y93],0.546
8,SSREGYVSHHN [FAM83B_Y433],0.399
9,ASTHIYQIMNH [ITK_Y588_V587I],4.36
10,SSQTVYQRVEG [TFR2_Y23],0.585
11,PEADKYCLTYA [FGG_Y300_R301C],0.821
12,QSMEPYTKQQL [STAT3_Y640_V637M],0.401
13,CTTIHYNYTCN [TP53_Y234_M237T],0.414
14,LKVQVYILGRE [ASS1_Y359_G356V],1.39
15,ANNQRYAFMPL [TMEM87B_Y460],0.485
16,SVVVPYEPPEF [TP53_Y220_V225F],0.509
